According to the supplement of paper PMC12764529:
± gives the half width of the 95% confidence interval.

How the values were obtained:
[1] = folding stability dG unfold from trypsin proteolysis; higher = more stable
In short: (§1)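 Unfolding free energy was derived, per protease or combined, against a sequence-predicted unfolded-state K50 and a shared folded-state K50, starting from K50 inferred by Bayesian fitting of sequencing counts. Digestion with trypsin and chymotrypsin was carried out on designed mini-proteins under 80 residues without cysteine in a PA-tagged cDNA display construct. Only designs with AlphaFold2 dimer inter-PAE above 15 were kept.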

[2] = folding stability dG unfold (combined trypsin and chymotrypsin); higher = more stable
In short: as §1

[3] = folding stability dG unfold from chymotrypsin proteolysis; higher = more stable
In short: as §1

Sequence | folding stability dG unfold [1] [kcal/mol] | folding stability dG unfold [2] [kcal/mol] | folding stability dG unfold [3] [kcal/mol]
SAGGPSIPGEKIRELLEKGYSLEEIVEFLEKENIPIARIEGVEPHPNSITIVFYNPETGEKITAVIGSAGGS [r8_179_TrMRF] | 2.02 ± 0.058 | 2.72 ± 0.14 | 2.96 ± 0.081
SAGGPVKLVKVQFINPETGEPVEISGPASKVLEIAEKLGLNVTSVTVIENPNTILVVVPGPNQLVVVTDSAG [r5_521_TrMRF] | 1.82 ± 0.055 | 1.69 ± 0.11 | 1.45 ± 0.018
SAGGPVNKKELVTVPVYYDPETGKFVVKATYPTRPITVPTDETDPVEALARFGTLLEKVTGKPIDTFVGSAG [r5_251_TrMRF] | -0.0487 ± 0.083 | 0.288 ± 0.04 | 0.414 ± 0.098
SAGGPVTFEAPLEELLKALPPELVRHASVEPLGEGERRFIATVELEDRRIEAYSDPERPGRVLVTLHFSAGG [r13_942_TrMRF] | 0.332 ± 0.11 | 0.569 ± 0.12 | 0.688 ± 0.12
SAGGPVTTVSVSGFVLPDGSRALLVTVATYYPDGYVAVPPVLVLVYPNGESEASTSTLVVKVPGGALSAGGS [r16_505_TrMRF] | 2.3 ± 0.056 | 2.79 ± 0.04 | 3.008 ± 0.011
SAGGQKTETFEFAFRKPDGSLYLVKITLIEKLPNEPNVYIAKVEVYKLNLVTGKPEKVGEFEVLLNLSAGGS [r8_65_TrMRF] | 3.4 ± 0.13 | 4.96 ± 0.14 | 5.04 ± 0.15
SAGGQRIEFEVQPNPENGMIFIKVKFQQMEPDPNGNKETREITHTVMVKLPPGAKPGEKIEIDIPPNMSAGG [r13_450_TrROS] | 0.859 ± 0.046 | 1.1 ± 0.39 | 0.828 ± 0.25
SAGGQRIEIKIKPGYFIMIKIRNPKNGETFRHFIPFKKPQEIEIPIPPNYEIEDIYIMPPKDMPDGMISAGG [r13_119_TrROS] | 2.11 ± 0.058 | 2.15 ± 0.18 | 2.28 ± 0.09
SAGGRIEIDPNSMQIKIYDAEDGEKVEIPINMPPGQIKEIELDPDGKISIRMPMWGQTQELPADDIKSAGGS [r16_410_TrROS] | -0.206 ± 0.061 | 0.793 ± 0.16 | 1.22 ± 0.023
SAGGRIVINLNPENGYLMISIRMPHRRYDPEDGKGKPEPMSMSIMFPPEEIEKFAEEFGMPIEIVPWSAGGS [r8_337_TrROS] | 1.42 ± 0.071 | 1.56 ± 0.18 | 1.4 ± 0.16
SAGGSAAEETYESDGLTVTVRTERGPDGTVRVVVEVRDRDGPLLATLPFTFKAREDEGLSFSVPFPSAGGSA [r15_950_TrMRF] | 1.28 ± 0.036 | 1.34 ± 0.076 | 1.26 ± 0.099
SAGGSAAGYAVLVRVEEVRLTSFRRRADGSLLEVDPDVELKLEVLAVFRIYPSPGDGWVVDPSDPASAGGSA [r15_162_TrMRF] | 2.73 ± 0.057 | 3.53 ± 0.062 | 3.827 ± 0.025
SAGGSAALPIVEVLETEESSDGTVTILAKLEDGTVVTITVTVEVKPPPPPPPVDPANMSPERLAAVSAGGSA [r15_41_JUSTAS] | 0.998 ± 0.08 | 0.566 ± 0.19 | 0.181 ± 0.07
SAGGSAAPEDTLVEEEVEIVTEETDPKLGGKKIVTTKVKRLIRYFPEKGELEVETVETETTVYPNESAGGSA [r15_517_JUSTAS] | -0.644 ± 0.47 | 0.111 ± 0.1 | 0.416 ± 0.084
SAGGSAAPLVLPVRIYGPNENVTAEASEYDPGTGIVRLTVTHPDGTKTTLTFTGPAALLPPDADLNSAGGSA [r15_596_TrMRF] | 0.611 ± 0.023 | 0.764 ± 0.056 | 0.849 ± 0.066
SAGGSAAPPVTVEVLPDGRIVITRGDAVASSVTPVPPDATITATFPATGETVTITRRAPEVTVTPASAGGSA [r15_235_JUSTAS] | -0.616 ± 0.29 | 0.835 ± 0.097 | 1.19 ± 0.017
SAGGSAAPVPVGAELAAAAPGAAVTVELPDGVTATVTRVGDTLVVDVTRFSEPPLPVSSATATLPLSAGGSA [r15_558_JUSTAS] | -0.369 ± 0.066 | 0.409 ± 0.05 | 0.638 ± 0.028
SAGGSAATVEVTRLPGGRYVVRLRNPDTDEEIVVELPVDASTTPEDVLEAARALVAELEEEGYTIESAGGSA [r15_1022_TrMRF] | 2.92 ± 0.07 | 3.04 ± 0.058 | 3.135 ± 0.024
SAGGSAAVGTSKGANVVTVRVEELEDKVVVYRYDPATGTVRVIVIDKPTGKALETKTFPVLPDQDASAGGSA [r15_425_TrMRF] | 1.01 ± 0.018 | 1.65 ± 0.049 | 1.95 ± 0.047
SAGGSADELLDKLGLPPDNIRKIKPVEPNPNGMRQLELEWPYKENGKEWRITIMYSPDGIMIDIEPSAGGSA [r15_813_TrROS] | 0.834 ± 0.061 | 1.57 ± 0.1 | 1.87 ± 0.053
SAGGSADEVEITLELEVELAPGQKTLTFKLLNLPPGLKFEVEEVELKVVEEDGKLRVEATIRIKKDSAGGSA [r15_321_TrROS_Hall] | 2.86 ± 0.17 | 3.72 ± 0.16 | 4.34 ± 0.17

Sequence | folding stability dG unfold [1] [kcal/mol] | folding stability dG unfold [2] [kcal/mol] | folding stability dG unfold [3] [kcal/mol]
SAGGSADIPSDWTVTPVSSSYDPATGTTTTEETVYDSKGNPQYKITVTTTFDPTTGTTTTTVTYNPSAGGSA [r15_1028_JUSTAS] | 2.37 ± 0.066 | 2.17 ± 0.058 | 2.054 ± 0.018
SAGGSADLPPEVGSVTYSQNVPLDEIDEFIQEVIEKLGISPEEIKEIKVSRKTVPGSGVVSLTIVLSAGGSA [r15_934_JUSTAS] | 1.46 ± 0.061 | 1.34 ± 0.13 | 1.18 ± 0.072
SAGGSADNLMFMFEFEFSFEWSNPDGEPMTMEVPITVMIPIPIPVPKATPEAMKDPEKAKEAQEEASAGGSA [r15_728_TrROS] | 2.39 ± 0.22 | 3.39 ± 0.32 | 3.51 ± 0.19
SAGGSADNTDVKTEVVGFRLPGYEGLNFLINIQPKDKPKTIFASEAELPLFEEAGIPVVFTSSLPLSAGGSA [r15_783_TrMRF] | -0.15 ± 0.29 | -0.131 ± 0.24 | -0.0437 ± 0.43
SAGGSADYYLIVIEIEKNGKKYKIVLVVSKEDLKKLEEEIKKKFPDVKIKIKVIKFPSKEEALKALSAGGSA [r15_889_TrROS_Hall] | 2.97 ± 0.1 | 3.46 ± 0.12 | 3.74 ± 0.054
SAGGSAEEDEVVTIRAVLENGEVRELEVKLPEGTRIYIPGTGEVREVPFGDEVPVPANSDLLVEPVSAGGSA [r15_152_TrMRF] | -0.106 ± 0.13 | -0.819 ± 0.62 | -0.642 ± 0.25
SAGGSAEEEEARRLAEELARRLEEEGYEIERVEVRVERLPDGTVRITVRVYRKDGKPVLELEITLPSAGGSA [r15_232_TrROS_Hall] | 4.54 ± 0.19 | 4.97 ± 0.11 | 4.99 ± 0.18
SAGGSAEEEVYRVRVTVTYRNPETGEVVEEVELVIEVEKGKTVEEVARELAKKLNVDRVEVELVPPSAGGSA [r15_540_TrROS_Hall] | 3.65 ± 0.11 | 4.27 ± 0.1 | 4.52 ± 0.091
SAGGSAEFKIEAEVLSKEVNPETGKPVVKVKIKIEKYNPETGKKEEKEIELELSEEELEKLLKELGSAGGSA [r2_357_TrMRF] | 3.61 ± 0.23 | 3.13 ± 0.13 | 2.93 ± 0.08
SAGGSAEIVIVESPQQVREAAEPENPDGPPVKVIPMTYEEAKNEIRELKKKGKPMKIVIVIDPGTPSAGGSA [r15_567_TrROS] | -0.547 ± 0.41 | -0.429 ± 0.65 | -0.167 ± 0.24
SAGGSAEKPEIGAEIVTYKDKDKPLYIVAVPFFDENGNLVGVLVKEFDNPEEAKEFLEALGFGKIESAGGSA [r15_127_TrMRF] | 1.55 ± 0.14 | 1.56 ± 0.12 | 1.68 ± 0.038
SAGGSAEKPPYVIRLEITVKGPGKKVKLDILVDSPEELEAVIQALKDLGFTDIEPKIETFPLEELDSAGGSA [r15_1015_TrMRF] | 1.63 ± 0.12 | 2.18 ± 0.17 | 2.42 ± 0.11
SAGGSAEKPVKIHLMYNPDYYYVRIRNNGGPQSFMFKPDMDIEEIANNFPPGIDEIEIHPMPPEAFSAGGSA [r15_1058_TrROS] | 0.251 ± 0.14 | 0.421 ± 0.1 | 0.491 ± 0.099
SAGGSAENKTIKITFTFKNAKNAIFTINVEKGNKTYKITFNLSDNQELNIEVDYNNTKVSFSIYPASAGGSA [r15_414_TrMRF] | 3.94 ± 0.48 | 4.74 ± 0.43 | 5.35 ± 0.21
SAGGSAEPIGTLTLSFPVKVKVKDADGSIHEYDVTITVTPTVYRLPNGDLVVGLDVEIVFPDGSSLPGSAGG [r13_113_TrMRF] | 3.11 ± 0.1 | 4.16 ± 0.066 | 4.42 ± 0.065
SAGGSAERVLIEAESLEEAKAALEELGVTRVEEREVDGKRYLILVDLDDPEKIEVFSREELEKLLKSAGGSA [r15_11_TrROS_Hall] | 0.935 ± 0.034 | 1.55 ± 0.083 | 1.78 ± 0.093
SAGGSAETIEIEIKVKTEEEREKLKEALKKIPSIKEVKELPDGTIKITVSKENLDKIKEALKKAGVSAGGSA [r15_834_TrROS_Hall] | 3.37 ± 0.34 | 3.31 ± 0.65 | 2.25 ± 0.24
SAGGSAETKTVVIEVKLPEELKGLSAEELAALLAEELAKKPGVKEVTVTVERDEETDTLRVTITYPSAGGSA [r15_1029_TrROS_Hall] | 3.21 ± 0.05 | 3.12 ± 0.042 | 2.94 ± 0.043
SAGGSAETTKDPNKPVETISTPGTLIKITKYPDSYNATIEPLDENGNVTGSESGPIKSIEEVLRQLSAGGSA [r15_288_JUSTAS] | -0.615 ± 0.16 | 0.216 ± 0.12 | 0.597 ± 0.067
SAGGSAETVVVRIEVRDPETGETLELEIEVRRDMTEEELRELAEELARALKEAGYEVRVEVVRLPPSAGGSA [r15_268_TrROS_Hall] | 3.11 ± 0.073 | 2.61 ± 0.091 | 2.26 ± 0.11
SAGGSAEVERFEIPVTSEEELEKLIEELKKAPGVLSVEKTPDGTLVVTVPKGKSDIVEEAAKKAGLSAGGSA [r15_834_JUSTAS] | 2.7 ± 0.12 | 2.97 ± 0.09 | 3.17 ± 0.11
